Laboratory results taken from article PMC12102759 (2025).

B1: AXIN1 peptide 237-252 (Axin-1), 16-mer library wild type / PP2A B56 (PPP2R5A B56 domain, residues 1-486) (parent complex)
chain 1: YLPTLNEDEEWKADQD
chain 2: not shown

Variants of: B1
Assay: proteomic peptide phage display deep mutational scan (ProP-PD DMS): M13 P8 16-mer library selected against immobilised GST-tagged bait for four days (rounds), NGS of the eluted pools per day and pseudo-replica; bait immobilised on MaxiSorp plates (10 µg), library pre-cleared on GST, 2 h binding at 4 °C, five washes; one round per day, days 1-4; value from days 2 and 3

Compared with chain 1 Y1K, chain 1 A13T is lower in screen value: 0.000785 average fractional NGS count over selection days 2 and 3 (reads of this peptide / all reads for the bait, averaged over … for the first, 0.000184 average fractional NGS count over selection days 2 and 3 (reads of this peptide / all reads for the bait, averaged over … for the second.

First: chain 1 N6H
Second: chain 1 E9W
The screen value of the first is higher: 0.0272 average fractional NGS count over selection days 2 and 3 (reads of this peptide / all reads for the bait, averaged over … for the first, 0.00436 average fractional NGS count over selection days 2 and 3 (reads of this peptide / all reads for the bait, averaged over … for the second.

Going from chain 1 A13I to chain 1 K12E, the screen value falls from 0.00149 average fractional NGS count over selection days 2 and 3 (reads of this peptide / all reads for the bait, averaged over … to 0.000936 average fractional NGS count over selection days 2 and 3 (reads of this peptide / all reads for the bait, averaged over ….

Going from chain 1 P3S to chain 1 E10I, the screen value rises from 0.00024 average fractional NGS count over selection days 2 and 3 (reads of this peptide / all reads for the bait, averaged over … to 0.0037 average fractional NGS count over selection days 2 and 3 (reads of this peptide / all reads for the bait, averaged over ….

First: chain 1 Y1H
Second: chain 1 D14F
The screen value of the first is lower: 0.000114 average fractional NGS count over selection days 2 and 3 (reads of this peptide / all reads for the bait, averaged over … for the first, 0.0121 average fractional NGS count over selection days 2 and 3 (reads of this peptide / all reads for the bait, averaged over … for the second.

Compared with chain 1 D8T, chain 1 D8Q is higher in screen value: 0.000632 average fractional NGS count over selection days 2 and 3 (reads of this peptide / all reads for the bait, averaged over … for the first, 0.00238 average fractional NGS count over selection days 2 and 3 (reads of this peptide / all reads for the bait, averaged over … for the second.

Going from chain 1 Q15F to chain 1 A13Q, the screen value falls from 0.00274 average fractional NGS count over selection days 2 and 3 (reads of this peptide / all reads for the bait, averaged over … to 0.000245 average fractional NGS count over selection days 2 and 3 (reads of this peptide / all reads for the bait, averaged over ….

Going from chain 1 D14P to chain 1 Y1V, the screen value falls from 0.00181 average fractional NGS count over selection days 2 and 3 (reads of this peptide / all reads for the bait, averaged over … to 0.000255 average fractional NGS count over selection days 2 and 3 (reads of this peptide / all reads for the bait, averaged over ….

Compared with chain 1 E9A, chain 1 K12L is lower in screen value: 0.00203 average fractional NGS count over selection days 2 and 3 (reads of this peptide / all reads for the bait, averaged over … for the first, 0.00105 average fractional NGS count over selection days 2 and 3 (reads of this peptide / all reads for the bait, averaged over … for the second.

First: chain 1 K12S
Second: chain 1 K12P
The screen value of the first is higher: 0.0233 average fractional NGS count over selection days 2 and 3 (reads of this peptide / all reads for the bait, averaged over … for the first, 0.00867 average fractional NGS count over selection days 2 and 3 (reads of this peptide / all reads for the bait, averaged over … for the second.

Going from chain 1 D14Q to chain 1 Y1L, the screen value rises from 0.00055 average fractional NGS count over selection days 2 and 3 (reads of this peptide / all reads for the bait, averaged over … to 0.00157 average fractional NGS count over selection days 2 and 3 (reads of this peptide / all reads for the bait, averaged over ….

First: chain 1 T4S
Second: chain 1 D8A
The screen value of the first is higher: 0.000737 average fractional NGS count over selection days 2 and 3 (reads of this peptide / all reads for the bait, averaged over … for the first, 0.000509 average fractional NGS count over selection days 2 and 3 (reads of this peptide / all reads for the bait, averaged over … for the second.

Going from chain 1 E10R to chain 1 Y1Q, the screen value rises from 0.000173 average fractional NGS count over selection days 2 and 3 (reads of this peptide / all reads for the bait, averaged over … to 0.000381 average fractional NGS count over selection days 2 and 3 (reads of this peptide / all reads for the bait, averaged over ….

Compared with chain 1 Y1A, chain 1 D14E is higher in screen value: 0.000622 average fractional NGS count over selection days 2 and 3 (reads of this peptide / all reads for the bait, averaged over … for the first, 0.00475 average fractional NGS count over selection days 2 and 3 (reads of this peptide / all reads for the bait, averaged over … for the second.

Compared with chain 1 Q15R, chain 1 D8S is higher in screen value: 0.000634 average fractional NGS count over selection days 2 and 3 (reads of this peptide / all reads for the bait, averaged over … for the first, 0.0116 average fractional NGS count over selection days 2 and 3 (reads of this peptide / all reads for the bait, averaged over … for the second.

Going from chain 1 A13H to chain 1 N6E, the screen value falls from 0.00442 average fractional NGS count over selection days 2 and 3 (reads of this peptide / all reads for the bait, averaged over … to 0.00107 average fractional NGS count over selection days 2 and 3 (reads of this peptide / all reads for the bait, averaged over ….

Going from chain 1 K12Y to chain 1 Q15G, the screen value falls from 0.00745 average fractional NGS count over selection days 2 and 3 (reads of this peptide / all reads for the bait, averaged over … to 0.00117 average fractional NGS count over selection days 2 and 3 (reads of this peptide / all reads for the bait, averaged over ….

First: chain 1 W11R
Second: chain 1 W11T
The screen value of the first is lower: 0.000154 average fractional NGS count over selection days 2 and 3 (reads of this peptide / all reads for the bait, averaged over … for the first, 0.000334 average fractional NGS count over selection days 2 and 3 (reads of this peptide / all reads for the bait, averaged over … for the second.

Compared with chain 1 E9P, chain 1 T4Q is higher in screen value: 0.00261 average fractional NGS count over selection days 2 and 3 (reads of this peptide / all reads for the bait, averaged over … for the first, 0.00351 average fractional NGS count over selection days 2 and 3 (reads of this peptide / all reads for the bait, averaged over … for the second.

Going from chain 1 A13V to chain 1 N6Q, the screen value rises from 0.000342 average fractional NGS count over selection days 2 and 3 (reads of this peptide / all reads for the bait, averaged over … to 0.00501 average fractional NGS count over selection days 2 and 3 (reads of this peptide / all reads for the bait, averaged over ….

First: chain 1 E9I
Second: chain 1 T4P
The screen value of the first is higher: 0.00451 average fractional NGS count over selection days 2 and 3 (reads of this peptide / all reads for the bait, averaged over … for the first, 0.00197 average fractional NGS count over selection days 2 and 3 (reads of this peptide / all reads for the bait, averaged over … for the second.

Going from chain 1 K12Q to chain 1 E9Q, the screen value rises from 0.00267 average fractional NGS count over selection days 2 and 3 (reads of this peptide / all reads for the bait, averaged over … to 0.0159 average fractional NGS count over selection days 2 and 3 (reads of this peptide / all reads for the bait, averaged over ….

First: chain 1 A13L
Second: chain 1 K12H
The screen value of the first is lower: 0.000528 average fractional NGS count over selection days 2 and 3 (reads of this peptide / all reads for the bait, averaged over … for the first, 0.0202 average fractional NGS count over selection days 2 and 3 (reads of this peptide / all reads for the bait, averaged over … for the second.

First: chain 1 N6S
Second: chain 1 Y1S
The screen value of the first is higher: 0.0193 average fractional NGS count over selection days 2 and 3 (reads of this peptide / all reads for the bait, averaged over … for the first, 0.000305 average fractional NGS count over selection days 2 and 3 (reads of this peptide / all reads for the bait, averaged over … for the second.

Compared with chain 1 D14T, chain 1 D8G is higher in screen value: 0.00142 average fractional NGS count over selection days 2 and 3 (reads of this peptide / all reads for the bait, averaged over … for the first, 0.0025 average fractional NGS count over selection days 2 and 3 (reads of this peptide / all reads for the bait, averaged over … for the second.

Compared with chain 1 Q15T, chain 1 Q15S is lower in screen value: 0.0102 average fractional NGS count over selection days 2 and 3 (reads of this peptide / all reads for the bait, averaged over … for the first, 0.00176 average fractional NGS count over selection days 2 and 3 (reads of this peptide / all reads for the bait, averaged over … for the second.

Compared with chain 1 E10P, chain 1 L5W is lower in screen value: 0.00206 average fractional NGS count over selection days 2 and 3 (reads of this peptide / all reads for the bait, averaged over … for the first, 0.000869 average fractional NGS count over selection days 2 and 3 (reads of this peptide / all reads for the bait, averaged over … for the second.

Compared with chain 1 N6Y, chain 1 Q15N is higher in screen value: 0.000368 average fractional NGS count over selection days 2 and 3 (reads of this peptide / all reads for the bait, averaged over … for the first, 0.00887 average fractional NGS count over selection days 2 and 3 (reads of this peptide / all reads for the bait, averaged over … for the second.

First: chain 1 A13P
Second: chain 1 N6F
The screen value of the first is higher: 0.00194 average fractional NGS count over selection days 2 and 3 (reads of this peptide / all reads for the bait, averaged over … for the first, 0.000398 average fractional NGS count over selection days 2 and 3 (reads of this peptide / all reads for the bait, averaged over … for the second.

Compared with chain 1 K12V, chain 1 D8R is lower in screen value: 0.00977 average fractional NGS count over selection days 2 and 3 (reads of this peptide / all reads for the bait, averaged over … for the first, 0.000182 average fractional NGS count over selection days 2 and 3 (reads of this peptide / all reads for the bait, averaged over … for the second.

Going from chain 1 D14G to chain 1 D8F, the screen value falls from 0.00106 average fractional NGS count over selection days 2 and 3 (reads of this peptide / all reads for the bait, averaged over … to 0.000675 average fractional NGS count over selection days 2 and 3 (reads of this peptide / all reads for the bait, averaged over ….

First: chain 1 K12N
Second: chain 1 D14A
The screen value of the first is lower: 0.00219 average fractional NGS count over selection days 2 and 3 (reads of this peptide / all reads for the bait, averaged over … for the first, 0.00375 average fractional NGS count over selection days 2 and 3 (reads of this peptide / all reads for the bait, averaged over … for the second.

First: chain 1 N6P
Second: chain 1 E10Y
The screen value of the first is higher: 0.0105 average fractional NGS count over selection days 2 and 3 (reads of this peptide / all reads for the bait, averaged over … for the first, 0.00105 average fractional NGS count over selection days 2 and 3 (reads of this peptide / all reads for the bait, averaged over … for the second.

Going from chain 1 E10M to chain 1 N6A, the screen value rises from 0.00109 average fractional NGS count over selection days 2 and 3 (reads of this peptide / all reads for the bait, averaged over … to 0.00273 average fractional NGS count over selection days 2 and 3 (reads of this peptide / all reads for the bait, averaged over ….

For chain 1 P3A, the screen value was 0.000353 average fractional NGS count over selection days 2 and 3 (reads of this peptide / all reads for the bait, averaged over ….
